Reference: PMC7402102

What was measured:
CC(=O)CC(=O)O = experiment: purified protein; conditions: 1 mM succinyl-CoA, pH 8.6, 37 °C, 15 mM MgCl2
[1] = tested on: CC(C)(COP(=O)(O)OP(=O)(O)OC[C@H]1O[C@@H](n2cnc3c(N)ncnc32)[C@H](O)[C@@H]1OP(=O)(O)O)[C@@H](O)C(=O)NCCC(=O)NCCSC(=O)CCC(=O)O; experiment: purified protein; conditions: acetoacetate co-substrate, pH 8.6, 37 °C, 15 mM MgCl2

Substance HsSCOT (Homo sapiens) has a Km (CC(=O)CC(=O)O) of 765 µM, a kcat (CC(=O)CC(=O)O) of 105 s⁻¹ and a Km [1] of 971 µM. It also gave a kcat [1] of 190 s⁻¹.
